Measurements reported in paper PMC2116009 (The Journal of Cell Biology, 1990).

Biological target: chicken transferrin receptor, endogenous on chicken embryo fibroblasts (chicken (endogenous in CEF), UniProt Q90997 1-776)
Assay: radioligand binding

Chain of chicken transferrin receptor, endogenous on chicken embryo fibroblasts (Q90997 whole entry): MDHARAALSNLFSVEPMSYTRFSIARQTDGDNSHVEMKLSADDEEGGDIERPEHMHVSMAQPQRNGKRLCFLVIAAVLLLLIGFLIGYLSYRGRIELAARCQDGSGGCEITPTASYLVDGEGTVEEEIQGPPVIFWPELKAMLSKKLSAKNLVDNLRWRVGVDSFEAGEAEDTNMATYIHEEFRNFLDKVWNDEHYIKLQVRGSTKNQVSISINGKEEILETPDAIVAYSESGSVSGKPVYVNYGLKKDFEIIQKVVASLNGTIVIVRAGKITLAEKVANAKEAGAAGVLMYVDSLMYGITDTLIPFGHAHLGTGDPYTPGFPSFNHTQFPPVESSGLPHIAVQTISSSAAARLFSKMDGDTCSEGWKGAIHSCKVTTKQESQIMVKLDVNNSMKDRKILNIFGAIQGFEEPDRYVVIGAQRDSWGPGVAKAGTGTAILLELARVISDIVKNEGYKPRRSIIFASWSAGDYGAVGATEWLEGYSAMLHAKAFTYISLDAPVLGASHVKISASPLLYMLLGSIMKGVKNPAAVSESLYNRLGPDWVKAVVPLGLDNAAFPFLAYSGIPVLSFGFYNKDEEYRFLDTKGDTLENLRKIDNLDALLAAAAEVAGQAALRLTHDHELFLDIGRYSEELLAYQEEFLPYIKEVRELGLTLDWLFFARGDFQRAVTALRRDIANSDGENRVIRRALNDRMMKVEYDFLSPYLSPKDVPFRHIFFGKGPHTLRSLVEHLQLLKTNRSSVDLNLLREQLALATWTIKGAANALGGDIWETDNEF

B1: ovotransferrin (ligand)
chain: APPKSVIRWCTISSPEEKKCNNLRDLTQQERISLTCVQKATYLDCIKAIANNEADAISLDGGQAFEAGLAPYKLKPIAAEVYEHTEGSTTSYYAVAVVKKGTEFTVNDLQGKTSCHTGLGRSAGWNIPIGTLLHRGAIEWEGIESGSVEQAVAKFFSASCVPGATIEQKLCRQCKGDPKTKCARNAPYSGYSGAFHCLKDGKGDVAFVKHTTVNENAPDQKDEYELLCLDGSRQPVDNYKTCNWARVAAHAVVARDDNKVEDIWSFLSKAQSDFGVDTKSDFHLFGPPGKKDPVLKDLLFKDSAIMLKRVPSLMDSQLYLGFEYYSAIQSMRKDQLTPSPRENRIQWCAVGKDEKSKCDRWSVVSNGDVECTVVDETKDCIIKIMKGEADAVALDGGLVYTAGVCGLVPVMAERYDDESQCSKTDERPASYFAVAVARKDSNVNWNNLKGKKSCHTAVGRTAGWVIPMGLIHNRTGTCNFDEYFSEGCAPGSPPNSRLCQLCQGSGGIPPEKCVASSHEKYFGYTGALRCLVEKGDVAFIQHSTVEENTGGKNKADWAKNLQMDDFELLCTDGRRANVMDYRECNLAEVPTHAVVVRPEKANKIRDLLERQEKRFGVNGSEKSKFMMFESQNKDLLFKDLTKCLFKVREGTTYKEFLGDKFYTVISSLKTCNPSDILQMCSFLEGK
- Kd: ~100 nM
